The data set can be described thus: label from the status in PepcDB records.
Turning to “MTMLLSIIVPTFKPQKTYFEECLFSLFNQTMFHYLYEVIVVLNGDIDTQYTDMILDIFAYKPAGLYCRLIKTDQAGVSNARNLGIDAAKGQYIGFVDDDDIVSSDYLEELCKISSRNIVGVSNVHTFRKTIEEKEDNFFACRIIQQRECQYSLFRNRAILAFPVAKLIHRDIIGNRRFNPRFKNGEDALFMTEISDLIGGFRFTKEYTTYYVRERAGSASRRPLKRGQLCWDTFMLIKAYVSIYLSSPFSYNFLLFASRIPGSIKGAIKLSRNTAFFLEHHHHHH”, the protein production entry was “failed”.
“MKPSTEWWRYLAPLAVIAIIALLPVPAGLENHTWLYFAVFTGVIVGLILEPVPGAVVAMVGISIIAILSPWLLFSPEQLAQPGFKFTAKSLSWAVSGFSNSVIWLIFAAFMFGTGYEKTGLGRRIALILVKKMGHRTLFLGYAVMFSELILAPVTPSNSARGAGIIYPIIRNLPPLYQSQPNDSSSRSIGSYIMWMGIVADCVTSAIFLTAMAPNLLLIGLMKSASHATLSWGDWFLGMLPLSILLVLLVPWLAYVLYPPVLKSGDQVPRWAETELQAMGPLCSREKRMLGLMVGALVLWIFGGDYIDAAMVGYSVVALMLLLRIISWDDIVSNKAAWNVFFWLASLITLATGLNNTGFISWFGKLLAGSLSGYSPTMVMVALIVVFYLLRYFFASATAYTSALAPMMIAAALAMPEIPLPVFCLMVGAAIGLGSILTPYATGPSPIYYGSGYLPTADYWRLGAIFGLIFLVLLVITGLLWMPVVLL”: the protein production result was “failed”.
Turning to “MSAPLFSVVVPAYNQHKFIDSCLTSLQRQTLTDFEVFVVDDCSTDDTGEQIAALIKGDDRFHVITHAHNRGVSAARNSGMAAAKGKYLCFVDGDDWVEPDFLATFLAAYRSAPDTQLVVCGHYGYLAVPSPAKTYNQKDLIANINFGTVGGFSWNKAFIRSIITTHHLKFNEDIDFLEDQLFAFRYANYVQSSEYVPDRTYHYRWRFRSNLAHIGIPFFTARRKMMKILKQENKQVLNEDWNNQLEHHHHHH”, the protein production entry is on record as “failed”.
For “MSDISKLIGAIVGSDDPVIIEFVLNIINKSGNLQEFIRNIQKLDAGISYEDSIKMYNAFLGKQEEEKVRNKVKSSPLSQKINQVLKDDVNLDDPVVTEFVLSILNKSKSITEFQEQLNLMQSGLDNETIFKIYQIASPPVMKEEVSVLPSTKIPAKIEAKIEEEVQKIESLDPSPVLHKVYEGKVRNITTFGCFVQIFGTRMKNCDGLVHISEMSDQRTLDPHDVVRQGQHIFVEVIKIQNNGKISLSMKNIDQHSGEIRKRNTESVEDRGRSNDAHTSRNMKNKIKRRALTSPERWEIRQLIASGAASIDDYPELKDEIPINTSYLTAKRDDGSIVNGNTEKVDSKLEEQQRDETDEIDVELNTDDGPKFLKDQQVKGAKKYEMPKITKVPRGFMNRSAINGSNAIRDHREEKLRKKREIEQQIRKQQSFDDPTKNKKDSRNEIQMLKNQLIVTEWEKNRMNESISYGKRTSLPISAQRQTLPVYAMRSELIQAVRDNQFLVIVGETGSGKTTQITQYLDEEGFSNYGMIGCTQPRRVAAVSVAKRVAEEVGCKVGHDVGYTIRFEDVTGPDTRIKYMTDGMLQREALLDPEMSKYSVIMLDEAHERTVATDVLFALLKKAAIKRPELKVIVTSATLNSAKFSEYFLNCPIINIPGKTFPVEVLYSQTPQMDYIEAALDCVIDIHINEGPGDILVFLTGQEEIDSCCEILYDRVKTLGDSIGELLILPVYSALPSEIQSKIFEPTPKGSRKVVFATNIAETSITIDGIYYVVDPGFAKINIYNARAGIEQLIVSPISQAQANQRKGRAGRTGPGKCYRLYTESAFYNEMLENTVPEIQRQNLSHTILMLKAMGINDLLKFDFMDPPPKNLMLNALTELYHLQSLDDEGKLTNLGKEMSLFPMDPTLSRSLLSSVDNQCSDEIVTIISMLSVQNVFYRPKDRQLEADSKKAKFHHPYGDHLTLLNVYTRWQQANYSEQYCKTNFLHFRHLKRARDVKSQISMIFKKIGLKLISCHSDPDLIRKTFVSGFFMNAAKRDSQVGYKTINGGTEVGIHPSSSLYGKEYEYVMYHSIVLTSREYMSQVTSIEPQWLLEVAPHFYKAGDAESQSRKKAKIIPLHNKFAKDQNSWRLSSIRQSRERALGIKR”, the protein production result is reported as “failed”.
With “MFKAPFSFDGRIRRIEYFLSGIIGGIVFGVAYSLGLATLFLGAAAGSAGGSLFGILIGIVAGIASIWFSLAQGVKRLHDLNKSGWLILICCVPIIGWVFSLYMLFADGTVGPNQYGEDPKNRMPYQPQPTSVNVTVNVSRETPAEAPAEEEKTEKAE”, the protein production result was “failed”.
In the case of “MRRRDPSRKMILRMSHVVRRLRPDGIVELRPRDVRVERPEWYLGAYTTFLVSGALFISTAVPAQLVAITFLGCLLGEVCFGLRALVALRRPLAEVEVLAPMRRVR” it was “failed”; in that of “SGEKSENCGVPEDLLNGLKVTDTQEAECAGPPVPDPKNQHSQSKLLRDDEAHLQEDQGEEECFHDCSASFEEEPGADKVENKSNEDVNSSELDEEYLIELKKNMSDEEKQKRREESTRLKEEGNEQFKKGDYIEAESSYSRALEMCPSCFQKERSILFSNRAAARMKQDKKEMAINDCSKAIQLNPSYIRAILRRAELYEKTDKLDEALEDYKSILEKDPSIHQAREACMRLPKQIEERNERLKEEMLGKLKDLGNLVLRPFGLSTENFQIKQDSSTGSYSINFVQNPNNNR”, “not failed”; in that of “RAVAGWGARPSAAPARRRARSLGVPYIALEDGFLRSFGTGRHFPPLSLVVDRLGIYYDATRESELECLLASSRTLLDGIEDAVPEAMELVRERRLSKYNQGCFLATGVPADGRRRVLVVDQTEGDMSVTLGCAEAATFEAMLAAARAESPGALICVKTHPEVAAGDKSGYLSRVTDDADTVALRHDMNPLALLEQMDRVYVVSSQMGFEALMLDKPVTCFGMPWYAGWGVTDDRQRCERRGRARSVEELFAGAYFHYTRYLDPVLH”, “failed”.
For “MYKDKVAVIMSVYKSDNPIDFNVAVNSIIRQTLKCDIFIYQDGPVSRELKSAINRFRKFNNIFIFVSEENKGLAYALNYLIDSCLLNNYQYIARMDSDDISHKNRMSIQVNFLEDNSDIHVVGSYCKEFGADCSLAEKKLPITHNDLLNFSITRCPFIHPSVMFRTSIFYNGLRYPVNTKYTEDMAFWFILLDLGYKFENIPETLIDYRMTENTVLRRRGFDKALSEVFIRFKYMIKFKKITVKNVSFIIGRFVFHLLPPNAIKYLYKKMR”, the protein production result is “failed”.
In the case of “MMLYRYTQTKLAQIASELKQTGLWSATAPSVEAMASTAPFACDLMPFEQWLQFIFIPRMQALIDAGQALPSQIAIAPMAEHLWSEQAALAPLISTLNELDILLNEPRLEHHHHHH”, the protein production result is “not failed”.
In the case of “MSDQVPKPHRHHIWRITRRTLSKSWDDSIFSESAQAAFWSALSLPPLLLGMLGSLAYVAPLFGPDTLPAIEKSALSTAHSFFSPSVVNEIIEPTIGDITNNARGEVASLGFLISLWAGSSAISAFVDAVVEAHDQTPLRHPVRQRFFALFLYVVMLVFLVATAPVMVVGPRKVSEHIPESLANLLRYGYYPALILGLTVGVILLYRVALPVPLPTHRLVLGAVLAIAVFLIATLGLRVYLAWITRTGYTYGALATPIAFLLFAFFGGFAIMLGAELNAAVQEEWPAPATHAHRLGNWLKARIGVGTTTYSSTAQHSAVAAEPPS”, the protein production entry is on record as “failed”.
Turning to “MKKDFASVTPAGKKTSVRWFIVFMLFLVTSINYADRATLSITGDSVQHDLGLDSVAMGYVFSAFGWAYVIGQLPGGWLLDRFGSKTIIALSIFFWSFFTLLQGAIGFFSAGTAIILLFALRFLVGLSEAPSFPGNGRVVASWFPSSERGTASAFFNSAQYFAIVIFPPLMGWLTHSFGWHSVFVVMGIAGILLAVIWLKTVYEPKKHPKVNEAELAYIEQGGGLISMDDSKSKQETESKWPYIKQLLTNRMLIGVYIAQYCITTLTYFFLTWFPVYLVQARGMSILEAGFVASLPALCGFAGGVLGGIVSDILLKKGRSLTFARKVPIIAGMLLSCSMIVCNYTDSAWLVVVIMSLAFFGKGFGALGWAVVSDTSPKECAGLSGGLFNTFGNIASITTPIIIGYIVNATGSFNGALVFVGANAIAAILSYLLLVGPIKRVVLKKQEQDPDQSLPV”, the protein production entry is “failed”.
On to “MFESLGFEETTAKEISVLLGLSLGVLFGLLAERTRFCFRRAVVGEDARQAAGVWFTALAVAILGTQASVASGLIGFADHRLLSSDLPVLAVVLGGLMFGAGMVLTRGCISRLTVLGGTGNLRALTVLLVFAVVAHAMLKGVLAPLRTSLGAVTVDLGETVSLAALPGGAALWTALLALASLLIAARSGNRALPLLGAALIGLLVPLGWVGTGYVLFDEFDPITMESLSFTAPAADTLFYTIASTSIAPGFGTGLVGGVLLGALAAALLFGSFRWQSFDSPRQTGRYLAGATLMGMGGVLAGGCTLGAGLAGIPTLSLAALLALTAIALGARLTDAALNAASSGSAGYPATPGQQPAE”, for which the protein production entry is listed as “failed”.
In the case of “MESLIGLVNRIQRACTVLGDYGGGTGSNAFNSLWEALPTVAVVGGQSSGKSSVLESIVGRDFLPRGSGIVTRRPLVLQLHKTDDGTEEYAEFLHLPKKQFTDFALVRREIQDETDRITGKNKQISPVPIHLSIYSPNVVNLTLIDLPGLTKVAVEGQPETIAEDIESMVRTYVDKPNCIILAISPANQDIATSDAIKLAKDVDPTGERTFGVLTKLDLMDKGTNALEVLEGRSYRLQHPWVGIVNRSQADINKNVDMMLARRKEREYFDTSPDYGHLASKMGSEYLAKLLSKHLESVIRTRIPSILSLINKSIEELERELDRMGRPVAVDAGAQLYTILEMCRAFDKIFKEHLDGGRPGGDRIYGVFDNQLPAALKKLPFDRHLSLQSVKKIVSEADGYQPHLIAPEQGYRRLIEGALGYFRGPAEASVDAVHYVLKELVRKSISETEELKRFPSLQVELAAAANSSLEKFREESKKSVIRLVDMESAYLTAEFFRKLPQEIERPVTNSKNQTASPSSATLDQYGDGHFRRIASNVSAYVNMVSDTLRNTIPKACVYCQVRQAKLALLNYFYSQISKREGKQLGQLLDEDPALMDRRLECAKRLELYKKARDEIDAVAWVR” it was “failed”; in that of “MNRNDITILSQQRESVLATNKVLRNTYLLLSLTFIFSALTAYVAFISGARPMNPLLMIVGVYGLMFLTQALRNSVWGLVSVFAFTGFLGYTIGPLLNYYITGFSNGPQIVATALGGTGMIFFALSGYALTTKKDFSYLGGFLFVGVMVALLAMIAGIFIQIPALQLVISAAFVLISSGLILLQTSAIIHEGETNYIMATIGLFVSIYNLFVSLLNLLSAFSGRD”, “failed”; in that of “NQPKRALRYNKRFMGDRRYMSFWSWLTTGNFVNKEFSYYKVPMELDVFDQDAFAESGVPFYVVATDIKTGKPDYIKIDHVFEQMEALRASSALPLVSEIVEYKGKRYMDGGLADSLPI”, “failed”.
Regarding “MSLKIGIIGGGSVGLLCAYYLSLYHDVTVVTRRQEQAAAIQSEGIRLYKGGEEFRADCSADTSINSDFDLLVVTVKQHQLQSVFSSLERIGKTNILFLQNGMGHIHDLKDWHVGHSIYVGIVEHGAVRKSDTAVDHTGLGAIKWSAFDDAEPDRLNILFQHNHSDFPIYYETDWYRLLTGKLIVNACINPLTALLQVKNGELLTTPAYLAFMKLVFQEACRILKLENEEKAWERVQAVCGQTKENRSSMLVDVIGGRQTEADAIIGYLLKEASLQGLDAVHLEFLYGSIKALERNTNKVEGHHHHHH”, the protein production result is reported as “not failed”.
Take “MSVIIAANNLCLQYQQNEPVIKHANLRIKRKDFVFISGPSGSGKSTLLRSFYGDLKLFSGKLEVCNINMNNASKATILDLRKNIGVVFQDYKLIQDYTIEQNIKLPMVICGIKKEECHLQLEKLLGHIDLRHKANRYPKELSGGEQQRVAMARAMANCPELILADEPTGNLDDYSSDKIWSLLRGMNTQLNATIVVVTHKFPKNFSAYHRKFYIEDGEVYEYS”: the protein production result is on record as “failed”.
